Data on 2 molecules can be found in article doi:10.1101/2023.09.08.556349 (bioRxiv, 2023).

For experiment [1], the target named is SARS-CoV-2 Spike S1-His Tag (HPLC-verified), NR-53798 (SARS-CoV-2 Wuhan-Hu-1, UniProt P0DTC2). As to the kind of experiment: ELISA. Background: ELISA stands for enzyme-linked immunosorbent assay.
Experiment [2] has as its target SARS-CoV-2 RBD-SD1 (Wu), S residues 319 to 591 (SARS-CoV-2 Wuhan-Hu-1, UniProt P0DTC2). As to the kind of experiment: ELISA.

B1: 3548-RBD-15 (antibody, V domains shown)
VH: QVQLQESGPGLVKPSETLSLTCTVSGGSVSSYYWSWIRQPPGKGLEWIGYIYYSGSTNYNPSLKSRVTISVDTSKNQFSLKLSSVTAADTAVYYCAKGIYSSSSYWGDPWGQGTLVTVSS
VL: not shown
For the molecule B1, the binding result in experiment [1] and in experiment [2] was “binds” throughout.

B2: 3548-S-2 (antibody, V domains shown)
VH: QVQLVESGPGLVKPSQTLSLTCTVSGGSISSGGYYWSWIRQHPGRGLERIGYIYYSGSTYYNPSLKSRVTISVDTSKDQFSLKLTSVTAADSAVYYCARGSRNDLRDFDYWGQGTLVTVSS
VL: QSVMTQPPSVSGAPGQRVTISCSGSSSNIGNNYVSWYQQLPGTAPKLLIYGNSNRSSRVPDRFSGSKSGTSASLAITGLQAEDEADYYCQSYNSSLSGLVVFGGGTQLTAL
Consider B2, for which the binding result in experiment [2] is listed as “binds”.
